According to patent US20230340160A1 (published 2023):

What was measured:
[1] = molecular target: human MCSP expressed on tumor cells (human, UniProt Q6UVK1 30-2322); assay: cell-based or functional assay
[2] = molecular target: T1, human CEA expressed on tumor cells (human, UniProt P06731 35-702); assay: cell-based or functional assay
T1 sequence (looked up): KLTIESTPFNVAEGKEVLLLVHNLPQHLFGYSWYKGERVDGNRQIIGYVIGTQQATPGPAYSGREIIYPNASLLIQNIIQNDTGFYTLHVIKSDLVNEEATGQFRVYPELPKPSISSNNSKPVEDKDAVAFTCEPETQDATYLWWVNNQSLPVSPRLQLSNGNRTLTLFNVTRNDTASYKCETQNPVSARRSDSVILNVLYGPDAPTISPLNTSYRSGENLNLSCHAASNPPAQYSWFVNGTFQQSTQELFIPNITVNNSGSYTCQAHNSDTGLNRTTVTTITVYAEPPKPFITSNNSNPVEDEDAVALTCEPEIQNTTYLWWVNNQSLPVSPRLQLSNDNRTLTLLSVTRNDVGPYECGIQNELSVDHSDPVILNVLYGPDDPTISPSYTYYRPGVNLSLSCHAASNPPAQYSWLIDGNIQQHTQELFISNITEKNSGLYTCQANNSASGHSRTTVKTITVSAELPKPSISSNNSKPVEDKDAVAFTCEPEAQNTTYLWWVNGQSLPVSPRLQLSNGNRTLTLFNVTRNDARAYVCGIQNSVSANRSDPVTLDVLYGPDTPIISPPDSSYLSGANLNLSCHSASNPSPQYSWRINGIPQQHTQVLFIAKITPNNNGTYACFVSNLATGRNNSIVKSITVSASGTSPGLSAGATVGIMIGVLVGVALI

[3] = molecular target: T2, human CD3 expressed on Jurkat cells (human, UniProt P07766 23-207); assay: flow cytometry on Jurkat cells
T2 construct: CD3 complex on Jurkat cells (ATCC TIB-152); also called huCD3
T2 sequence (P07766 23-207 limits assumed): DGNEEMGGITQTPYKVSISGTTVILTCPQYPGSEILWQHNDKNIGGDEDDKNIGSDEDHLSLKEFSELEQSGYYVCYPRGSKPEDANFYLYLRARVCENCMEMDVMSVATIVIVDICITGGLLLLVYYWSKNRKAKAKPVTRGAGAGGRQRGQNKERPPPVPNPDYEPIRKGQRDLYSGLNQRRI
Experimental: Binding of the different bispecific constructs to CD3 on Jurkat cells (ATCC #TIB-152), and the respective tumor antigen on target cells, was determined by FACS. Briefly, cells were harvested, counted and checked for viability. 0.15 - 0.2 million cells per well (in PBS containing 0.1% BSA; 90 µl) were plated in a round-bottom 96-well plate and incubated with the indicated concentration of the bispecific constructs and corresponding IgG controls (10 µl) for 30 min at 4° C. For a better comparison, all constructs and IgG controls were normalized to same molarity. After the incubation, cells were centrifuged (5 min, 350 × g), washed with 150 µl PBS containing 0.1% BSA, resuspended and incubated for further 30 min at 4° C. with 12 µl/well of a FITC-or PE-conjugated secondary antibody. Bound constructs were detected using a FACSCantoII (Software FACS Diva). The “(scFv)₂” molecule was detected using a FITC-conjugated anti-His antibody (Lucerna, #RHIS-45F-Z). For all other molecules, a FITC- or PE-conjugated AffiniPure F(ab′)2 Fragment goat anti-human IgG Fcγ Fragment Specific (Jackson Immuno Research Lab # 109-096-098 / working solution 1:20, or #109-116-170 / working solution 1:80, respectively) was used. Cells were washed by addition of 120 µl/well PBS containing 0.1% BSA and centrifugation at 350 × g for 5 min. A second washing step was performed with 150 µl/well PBS containing 0.1% BSA. Unless otherwise indicated, cells were fixed with 100 µl/well fixation buffer (BD #554655) for 15 min at 4° C. in the dark, centrifuged for 6 min at 400 × g and kept in 200 µl/well PBS containing 0.1% BSA until the samples were measured with FACS CantoII. EC50 values were calculated using the GraphPad Prism software.
As a control, the equivalent maximum concentration of the corresponding IgGs and the background staining due to the labeled 2ndary antibody (goat anti-human FITC-conjugated AffiniPure F(ab′)2 Fragment, Fcγ Fragment-specific, Jackson Immuno Research Lab # 109-096-098) were assessed as well.

human MCSP expressed on tumor cells, sequence (Q6UVK1 30-2322): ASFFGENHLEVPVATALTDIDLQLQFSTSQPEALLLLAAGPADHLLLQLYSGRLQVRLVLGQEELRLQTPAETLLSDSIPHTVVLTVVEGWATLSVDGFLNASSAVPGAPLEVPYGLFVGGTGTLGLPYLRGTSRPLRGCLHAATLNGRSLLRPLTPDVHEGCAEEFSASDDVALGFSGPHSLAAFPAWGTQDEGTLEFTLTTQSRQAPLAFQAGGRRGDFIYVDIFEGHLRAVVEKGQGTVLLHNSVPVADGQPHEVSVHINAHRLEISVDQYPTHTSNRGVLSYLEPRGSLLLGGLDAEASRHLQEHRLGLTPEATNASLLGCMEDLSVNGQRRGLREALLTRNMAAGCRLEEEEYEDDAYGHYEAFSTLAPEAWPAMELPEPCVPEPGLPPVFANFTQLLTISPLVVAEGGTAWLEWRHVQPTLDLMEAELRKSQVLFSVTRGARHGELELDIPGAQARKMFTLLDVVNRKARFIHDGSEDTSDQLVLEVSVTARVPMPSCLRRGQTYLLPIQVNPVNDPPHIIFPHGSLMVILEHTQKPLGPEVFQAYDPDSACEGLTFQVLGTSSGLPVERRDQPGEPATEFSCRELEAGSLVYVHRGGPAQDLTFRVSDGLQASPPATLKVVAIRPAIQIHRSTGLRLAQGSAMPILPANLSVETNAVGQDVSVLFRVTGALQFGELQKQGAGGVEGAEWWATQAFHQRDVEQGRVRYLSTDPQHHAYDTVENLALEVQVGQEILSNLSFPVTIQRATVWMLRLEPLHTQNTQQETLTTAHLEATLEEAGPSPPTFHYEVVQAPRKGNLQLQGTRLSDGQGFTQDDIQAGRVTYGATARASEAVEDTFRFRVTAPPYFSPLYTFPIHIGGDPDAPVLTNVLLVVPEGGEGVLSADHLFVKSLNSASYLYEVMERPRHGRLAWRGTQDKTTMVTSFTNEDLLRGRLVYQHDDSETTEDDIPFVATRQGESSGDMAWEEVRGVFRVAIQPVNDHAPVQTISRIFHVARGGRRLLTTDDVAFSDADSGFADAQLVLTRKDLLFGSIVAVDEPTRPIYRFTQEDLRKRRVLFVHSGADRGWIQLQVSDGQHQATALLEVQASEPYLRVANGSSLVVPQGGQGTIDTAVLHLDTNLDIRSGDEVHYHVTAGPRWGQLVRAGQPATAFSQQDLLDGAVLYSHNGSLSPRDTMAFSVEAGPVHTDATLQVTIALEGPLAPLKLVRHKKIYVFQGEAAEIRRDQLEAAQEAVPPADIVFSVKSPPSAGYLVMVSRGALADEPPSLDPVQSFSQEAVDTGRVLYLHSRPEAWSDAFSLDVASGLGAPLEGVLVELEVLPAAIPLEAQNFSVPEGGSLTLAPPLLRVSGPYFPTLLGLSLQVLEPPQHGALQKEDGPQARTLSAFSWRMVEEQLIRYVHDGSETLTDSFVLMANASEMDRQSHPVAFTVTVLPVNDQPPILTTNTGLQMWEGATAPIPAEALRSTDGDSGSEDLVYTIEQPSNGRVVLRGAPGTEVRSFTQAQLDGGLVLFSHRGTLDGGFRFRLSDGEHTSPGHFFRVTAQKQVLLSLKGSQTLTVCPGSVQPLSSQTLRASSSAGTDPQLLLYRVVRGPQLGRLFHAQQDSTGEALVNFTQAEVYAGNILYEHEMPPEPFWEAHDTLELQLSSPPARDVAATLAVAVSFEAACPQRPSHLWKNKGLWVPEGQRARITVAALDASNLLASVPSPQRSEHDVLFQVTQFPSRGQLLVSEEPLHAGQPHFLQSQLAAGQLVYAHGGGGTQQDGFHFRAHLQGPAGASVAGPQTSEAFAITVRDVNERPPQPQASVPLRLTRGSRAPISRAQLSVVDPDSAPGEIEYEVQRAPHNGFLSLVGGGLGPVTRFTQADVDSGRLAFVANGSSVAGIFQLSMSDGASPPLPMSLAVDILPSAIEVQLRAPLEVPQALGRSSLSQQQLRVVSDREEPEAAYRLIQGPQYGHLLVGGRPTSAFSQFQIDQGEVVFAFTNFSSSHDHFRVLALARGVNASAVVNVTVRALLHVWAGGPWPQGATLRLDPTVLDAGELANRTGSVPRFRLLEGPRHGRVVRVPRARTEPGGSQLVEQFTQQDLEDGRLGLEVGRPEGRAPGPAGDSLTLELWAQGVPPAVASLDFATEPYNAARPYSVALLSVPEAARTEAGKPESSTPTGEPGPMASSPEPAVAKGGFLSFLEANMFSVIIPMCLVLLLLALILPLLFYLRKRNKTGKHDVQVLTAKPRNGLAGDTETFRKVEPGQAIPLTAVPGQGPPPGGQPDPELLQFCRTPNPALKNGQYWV

Row | Binder | EC50 of killing (LDH release) of MV-3 cells, human PBMCs, E:T 10:1, 21 h [1] [pM] | EC50 of killing (LDH release) of WM266-4 cells, human PBMCs, E:T 10:1, 21 h [1] [pM] | EC50 of killing (LDH release) of MV-3 cells, human PBMCs, E:T 10:1, 27 h [1] [pM] | EC50 of killing (LDH release) of WM266-4 cells, human PBMCs, E:T 10:1, 26 h [1] [pM] | further results
1 | CD3/MCSP “1+1 IgG Crossfab”; VL/VH exchange (LC007/V9) (bispecific antibody) heavy: DIQMTQSPSSLSASVGDRVTITCRASQDIRNYLNWYQQKPGKAPKLLIYYTSRLESGVPSRFSGSGSGTDYTLTISSLQPEDFATYYCQQGNTLPWTFGQGTKVEIKSSASTKGPSVFPLAPSSKSTSGGTAALGCLVKDYFPEPVTVSWNSGALTSGVHTFPAVLQSSGLYSLSSVVTVPSSSLGTQTYICNVNHKPSNTKVDKKVEPKSCGGGGSGGGGSEVQLQESGPGLVKPSQSLSLTCSVTGYSITSGYYWNWIRQFPGNKLEWMGYITYDGSNNYNPSLKNRISITRDTSKNQFFLKLNSVTTEDTATYYCADFDYWGQGTTLTVSSASTKGPSVFPLAPSSKSTSGGTAALGCLVKDYFPEPVTVSWNSGALTSGVHTFPAVLQSSGLYSLSSVVTVPSSSLGTQTYICNVNHKPSNTKVDKKVEPKSCDKTHTCPPCPAPEAAGGPSVFLFPPKPKDTLMISRTPEVTCVVVDVSHEDPEVKFNWYVDGVEVHNAKTKPREEQYNSTYRVVSVLTVLHQDWLNGKEYKCKVSNKALGAPIEKTISKAKGQPREPQVCTLPPSRDELTKNQVSLSCAVKGFYPSDIAVEWESNGQPENNYKTTPPVLDSDGSFFLVSKLTVDKSRWQQGNVFSCSVMHEALHNHYTQKSLSLSPGK not shown light 1: DIVLTQSPSSLSASLGDRVTISCSASQGIRNYLNWYQQRPDGTVKLLIYYTSSLHSGVPSRFSGSGSGTDYSLTISNLEPEDIATYYCQQYSKLPWTFGGGTKLEIKRTVAAPSVFIFPPSDEQLKSGTASVVCLLNNFYPREAKVQWKVDNALQSGNSQESVTEQDSKDSTYSLSSTLTLSKADYEKHKVYACEVTHQGLSSPVTKSFNRGEC light 2: EVQLVESGGGLVQPGGSLRLSCAASGYSFTGYTMNWVRQAPGKGLEWVALINPYKGVSTYNQKFKDRFTISVDKSKNTAYLQMNSLRAEDTAVYYCARSGYYGDSDWYFDVWGQGTLVTVSSASVAAPSVFIFPPSDEQLKSGTASVVCLLNNFYPREAKVQWKVDNALQSGNSQESVTEQDSKDSTYSLSSTLTLSKADYEKHKVYACEVTHQGLSSPVTKSFNRGEC | 40.9 | 28.4 |  |  | 
2 | “2+1 IgG Crossfab (CL/CH1)”; CL/CH1 exchange (M4-3 ML2/V9) (bispecific antibody) heavy 1: not shown heavy 2: QVQLQESGPGLVKPSQTLSLTCTVSGGSITSGYYWNWIRQHPGKGLEWIGYITYDGSNNYNPSLKSRVTISRDTSKNQFSLKLSSVTAADTAVYYCADFDYWGQGTLVTVSSASTKGPSVFPLAPSSKSTSGGTAALGCLVKDYFPEPVTVSWNSGALTSGVHTFPAVLQSSGLYSLSSVVTVPSSSLGTQTYICNVNHKPSNTKVDKKVEPKSCDKTHTCPPCPAPEAAGGPSVFLFPPKPKDTLMISRTPEVTCVVVDVSHEDPEVKFNWYVDGVEVHNAKTKPREEQYNSTYRVVSVLTVLHQDWLNGKEYKCKVSNKALGAPIEKTISKAKGQPREPQVCTLPPSRDELTKNQVSLSCAVKGFYPSDIAVEWESNGQPENNYKTTPPVLDSDGSFFLVSKLTVDKSRWQQGNVFSCSVMHEALHNHYTQKSLSLSPGK light 1: not shown light 2: DIQMTQSPSSLSASVGDRVTITCRASQDIRNYLNWYQQKPGKAPKLLIYYTSRLESGVPSRFSGSGSGTDYTLTISSLQPEDFATYYCQQGNTLPWTFGQGTKVEIKSSASTKGPSVFPLAPSSKSTSGGTAALGCLVKDYFPEPVTVSWNSGALTSGVHTFPAVLQSSGLYSLSSVVTVPSSSLGTQTYICNVNHKPSNTKVDKKVEPKSC |  |  | ~11.7 | 12.9 | 
3 | CD3/MCSP “1+1 CrossMab”; CL/CH1 exchange (LC007/V9) (bispecific antibody, human IgG1, kappa, L234A L235A) heavy 1: not shown heavy 2: EVQLQESGPGLVKPSQSLSLTCSVTGYSITSGYYWNWIRQFPGNKLEWMGYITYDGSNNYNPSLKNRISITRDTSKNQFFLKLNSVTTEDTATYYCADFDYWGQGTTLTVSSASTKGPSVFPLAPSSKSTSGGTAALGCLVKDYFPEPVTVSWNSGALTSGVHTFPAVLQSSGLYSLSSVVTVPSSSLGTQTYICNVNHKPSNTKVDKKVEPKSCDKTHTCPPCPAPEAAGGPSVFLFPPKPKDTLMISRTPEVTCVVVDVSHEDPEVKFNWYVDGVEVHNAKTKPREEQYNSTYRVVSVLTVLHQDWLNGKEYKCKVSNKALGAPIEKTISKAKGQPREPQVCTLPPSRDELTKNQVSLSCAVKGFYPSDIAVEWESNGQPENNYKTTPPVLDSDGSFFLVSKLTVDKSRWQQGNVFSCSVMHEALHNHYTQKSLSLSPGK light 1: DIVLTQSPSSLSASLGDRVTISCSASQGIRNYLNWYQQRPDGTVKLLIYYTSSLHSGVPSRFSGSGSGTDYSLTISNLEPEDIATYYCQQYSKLPWTFGGGTKLEIKRTVAAPSVFIFPPSDEQLKSGTASVVCLLNNFYPREAKVQWKVDNALQSGNSQESVTEQDSKDSTYSLSSTLTLSKADYEKHKVYACEVTHQGLSSPVTKSFNRGEC light 2: DIQMTQSPSSLSASVGDRVTITCRASQDIRNYLNWYQQKPGKAPKLLIYYTSRLESGVPSRFSGSGSGTDYTLTISSLQPEDFATYYCQQGNTLPWTFGQGTKVEIKSSASTKGPSVFPLAPSSKSTSGGTAALGCLVKDYFPEPVTVSWNSGALTSGVHTFPAVLQSSGLYSLSSVVTVPSSSLGTQTYICNVNHKPSNTKVDKKVEPKSC | 88.4 | 53.9 |  |  | 
4 | “1+1 IgG Crossfab light chain (LC) fusion” (CH1A1A/V9) (bispecific antibody, also called 1+1 IgG Crossfab LC fusion) heavy: not shown DKTHTCPPCPAPEAAGGPSVFLFPPKPKDTLMISRTPEVTCVVVDVSHEDPEVKFNWYVDGVEVHNAKTKPREEQYNSTYRVVSVLTVLHQDWLNGKEYKCKVSNKALGAPIEKTISKAKGQPREPQVCTLPPSRDELTKNQVSLSCAVKGFYPSDIAVEWESNGQPENNYKTTPPVLDSDGSFFLVSKLTVDKSRWQQGNVFSCSVMHEALHNHYTQKSLSLSPGK light 1: DIQMTQSPSSLSASVGDRVTITCKASAAVGTYVAWYQQKPGKAPKLLIYSASYRKRGVPSRFSGSGSGTDFTLTISSLQPEDFATYYCHQYYTYPLFTFGQGTKLEIKRTVAAPSVFIFPPSDEQLKSGTASVVCLLNNFYPREAKVQWKVDNALQSGNSQESVTEQDSKDSTYSLSSTLTLSKADYEKHKVYACEVTHQGLSSPVTKSFNRGECGGGGSGGGGSGGGGSGGGGSEVQLVESGGGLVQPGGSLRLSCAASGYSFTGYTMNWVRQAPGKGLEWVALINPYKGVSTYNQKFKDRFTISVDKSKNTAYLQMNSLRAEDTAVYYCARSGYYGDSDWYFDVWGQGTLVTVSSASVAAPSVFIFPPSDEQLKSGTASVVCLLNNFYPREAKVQWKVDNALQSGNSQESVTEQDSKDSTYSLSSTLTLSKADYEKHKVYACEVTHQGLSSPVTKSFNRGEC light 2: DIQMTQSPSSLSASVGDRVTITCRASQDIRNYLNWYQQKPGKAPKLLIYYTSRLESGVPSRFSGSGSGTDYTLTISSLQPEDFATYYCQQGNTLPWTFGQGTKVEIKSSASTKGPSVFPLAPSSKSTSGGTAALGCLVKDYFPEPVTVSWNSGALTSGVHTFPAVLQSSGLYSLSSVVTVPSSSLGTQTYICNVNHKPSNTKVDKKVEPKSC |  |  |  |  | EC50 of killing (LDH release) of LS-174T cells, human PBMCs, E:T 10:1, 28 h [2]: 1.56 nM; EC50 of killing (LDH release) of MC38-huCEA cells, human PBMCs, E:T 10:1, 24 h [2]: ~3.2 nM; EC50 of killing (LDH release) of MKN-45 cells, human PBMCs, E:T 10:1, 28 h [2]: 213 pM; binding result [3]: binds
5 | “2+1 IgG Crossfab (VL/VH)”; VL/VH exchange (M4-3 ML2/V9) (bispecific antibody) heavy 1: not shown heavy 2: QVQLQESGPGLVKPSQTLSLTCTVSGGSITSGYYWNWIRQHPGKGLEWIGYITYDGSNNYNPSLKSRVTISRDTSKNQFSLKLSSVTAADTAVYYCADFDYWGQGTLVTVSSASTKGPSVFPLAPSSKSTSGGTAALGCLVKDYFPEPVTVSWNSGALTSGVHTFPAVLQSSGLYSLSSVVTVPSSSLGTQTYICNVNHKPSNTKVDKKVEPKSCDKTHTCPPCPAPEAAGGPSVFLFPPKPKDTLMISRTPEVTCVVVDVSHEDPEVKFNWYVDGVEVHNAKTKPREEQYNSTYRVVSVLTVLHQDWLNGKEYKCKVSNKALGAPIEKTISKAKGQPREPQVCTLPPSRDELTKNQVSLSCAVKGFYPSDIAVEWESNGQPENNYKTTPPVLDSDGSFFLVSKLTVDKSRWQQGNVFSCSVMHEALHNHYTQKSLSLSPGK light 1: not shown light 2: EVQLVESGGGLVQPGGSLRLSCAASGYSFTGYTMNWVRQAPGKGLEWVALINPYKGVSTYNQKFKDRFTISVDKSKNTAYLQMNSLRAEDTAVYYCARSGYYGDSDWYFDVWGQGTLVTVSSASVAAPSVFIFPPSDEQLKSGTASVVCLLNNFYPREAKVQWKVDNALQSGNSQESVTEQDSKDSTYSLSSTLTLSKADYEKHKVYACEVTHQGLSSPVTKSFNRGEC |  |  | ~82.2 | 16.8 | 
